Key:
SEC = target: the molecule itself; experiment: SEC
crystal structure = target: the molecule itself; experiment: crystal structure

B1: short-chain dehydrogenase/reductase-family oxidoreductase from Brucella ovis ATCC 25840 (enzyme)
chain: MELLKEKLVLVTGAGRGLGAAISSGAAEQGARVILVDIDGTAAKAQADALTAKGFVAEGHALDVTDRDAVAALADDILSRFGGLDVLVNNAGVAGRAAFDQPEAVEVWDRVIGVNLEGAFNVSHALVPALKAAKGNVVHLCSVAGFVSGGSTAGYVVSKGAIRSLTQVMARDLAPHGIRVNAVAPGIMMSEMAVAQLNRPGGTDWFMNRVMMKRIGETSEVVDPVVFLASPMASYITGTILPVDGGFLAA
notes: also called BoSDR; B. ovis SDR; not shown: His6, N-terminal, kept
stoichiometry N (SEC): ~2
stoichiometry N (crystal structure): 4
